Source: the supplement of paper PMC10126150
± gives the standard deviation of the averaged measurements.

Each sequence was assayed on ATP (assay: switch fluorescence ratio, 500 uM ATP over buffer (Cy3 cluster intensity, sum of 5 cycles each) (fold (ratio)); higher = stronger signal-on switching upon ATP binding; sequences stand for … in TCGTCGGCAGCGTCAGATGTGTATAAGAGACAGTTTTTTTTTTTTTTTTTTTTTTTTT…TC). Details: aptamer strand: ATP DNA aptamer (quencher-CACCTGGGGGAGTATTGCGGAGGAAGG + anchor), 100 nM annealed; ATP concentration: 500 uM.
Summary of the method: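 Cy3-labelled switching-strand clusters on a modified Illumina MiSeq flow-cell were annealed to 100 nM quencher-labelled ATP aptamer and imaged first in selection buffer, then after 15 min with 500 uM ATP at 22 °C. NaOH stripping and re-annealing separated each of five buffer/ATP cycles, and clusters outside 100-1000 RFU were excluded. The fluorescence ratio sums target-cycle Cy3 intensity over buffer-cycle Cy3 intensity per cluster and averages it per switch-domain sequence.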
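Also: ATP exposure 15 min at 22 °C before imaging.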

First: AAAGAGGGTG
Second: AAAGAGGTAG
The switch fluorescence ratio of the first is higher: 1.1 ± 0.058 for the first, 0.9983 ± 0.0024 for the second.

AAAGAGGTTT and AAAGAGTGCG are within error of each other in switch fluorescence ratio: 0.985 ± 0.034 for the first, 1 ± 0.042 for the second.

Going from AAAGATAGAT to AAAGATCGTT, the switch fluorescence ratio falls from 1.002 ± 0.0027 to 0.9799 ± 0.0055.

Compared with AAAGATTTTG, AAAGCAGGGG is higher in switch fluorescence ratio: 0.982 ± 0.031 for the first, 1.06 ± 0.037 for the second.

AAAGCCGGTT and AAAGCCTGGG are within error of each other in switch fluorescence ratio: 0.9689 ± 0.004 for the first, 0.966 ± 0.027 for the second.

AAAGCGGATG and AAAGCGTATA are within error of each other in switch fluorescence ratio: 0.986 ± 0.077 for the first, 0.987 ± 0.052 for the second.

AAAGCTGGGG and AAAGCTGGGT are within error of each other in switch fluorescence ratio: 0.981 ± 0.048 for the first, 1 ± 0.026 for the second.

AAAGGAAAGG and AAAGGAAGGG are within error of each other in switch fluorescence ratio: 0.992 ± 0.014 for the first, 0.989 ± 0.033 for the second.

AAAGGAATTT and AAAGGAGATT are within error of each other in switch fluorescence ratio: 1.12 ± 0.19 for the first, 0.996 ± 0.028 for the second.

AAAGGAGTA and AAAGGATACG are the same in switch fluorescence ratio: 1.01 ± 0.037 for the first, 1.01 ± 0.034 for the second.

AAAGGCCAGT and AAAGGCCGGA are the same in switch fluorescence ratio: 1.03 ± 0.018 for the first, 1.03 ± 0.041 for the second.

Going from AAAGGCCGTC to AAAGGCCTG, the switch fluorescence ratio falls from 1.04 ± 0.012 to 1.01 ± 0.017.

AAAGGCTCGG and AAAGGGCTCT are within error of each other in switch fluorescence ratio: 0.978 ± 0.022 for the first, 0.9821 ± 0.0078 for the second.

AAAGGGGTTT and AAAGGGTATA are within error of each other in switch fluorescence ratio: 1.02 ± 0.022 for the first, 0.978 ± 0.064 for the second.

AAAGGGTGGC and AAAGGGTTGC are within error of each other in switch fluorescence ratio: 1.01 ± 0.028 for the first, 0.999 ± 0.041 for the second.

AAAGGTAGGG and AAAGGTAGTA are the same in switch fluorescence ratio: 0.993 ± 0.032 for the first, 0.9934 ± 0.0097 for the second.

Compared with AAAGGTCAGG, AAAGGTGCCA is higher in switch fluorescence ratio: 1 ± 0.028 for the first, 1.05 ± 0.015 for the second.

AAAGGTTATC and AAAGTCTTT are the same in switch fluorescence ratio: 1.018 ± 0.0098 for the first, 1.02 ± 0.047 for the second.

AAAGTGAGGT and AAAGTGGTGG are within error of each other in switch fluorescence ratio: 1.01 ± 0.017 for the first, 1.02 ± 0.039 for the second.

AAAGTGTTGT and AAAGTGTTTG are within error of each other in switch fluorescence ratio: 0.979 ± 0.039 for the first, 1.02 ± 0.016 for the second.

AAAGTGTTTT and AAAGTTGATT are within error of each other in switch fluorescence ratio: 0.995 ± 0.051 for the first, 1.01 ± 0.03 for the second.

Going from AAAGTTTCAT to AAATAAAAAC, the switch fluorescence ratio rises from 0.991 ± 0.034 to 1.08 ± 0.044.

AAATAACGAG and AAATACCGGC are within error of each other in switch fluorescence ratio: 1 ± 0.036 for the first, 1.1 ± 0.16 for the second.

AAATACGTCT and AAATAGGCAT are within error of each other in switch fluorescence ratio: 1.09 ± 0.096 for the first, 1.0235 ± 0.00029 for the second.

AAATAGGGGT and AAATAGGGTA are within error of each other in switch fluorescence ratio: 1 ± 0.039 for the first, 0.993 ± 0.023 for the second.

AAATAGGTG and AAATAGGTGA are within error of each other in switch fluorescence ratio: 1.12 ± 0.058 for the first, 1.05 ± 0.025 for the second.

First: AAATAGGTTG
Second: AAATAGTGG
The switch fluorescence ratio of the first is higher: 1.01 ± 0.021 for the first, 0.9626 ± 0.0063 for the second.

AAATATATTA and AAATATTGGG are within error of each other in switch fluorescence ratio: 1.02 ± 0.016 for the first, 0.98 ± 0.068 for the second.

AAATATTGTG and AAATCCGAAT are within error of each other in switch fluorescence ratio: 0.982 ± 0.023 for the first, 1.01 ± 0.069 for the second.

AAATCGAGCT and AAATCGAGGA are within error of each other in switch fluorescence ratio: 1.04 ± 0.049 for the first, 1.018 ± 0.0096 for the second.

AAATCGGGGG and AAATCGTAGT are within error of each other in switch fluorescence ratio: 1.05 ± 0.084 for the first, 0.9885 ± 0.0069 for the second.

AAATCGTGGA and AAATCGTTGT are within error of each other in switch fluorescence ratio: 0.987 ± 0.011 for the first, 0.975 ± 0.043 for the second.

AAATCTCGGA and AAATCTCTGA are within error of each other in switch fluorescence ratio: 1.2 ± 0.31 for the first, 1.01 ± 0.025 for the second.

AAATCTTTCG and AAATGACAGT are within error of each other in switch fluorescence ratio: 1.05 ± 0.044 for the first, 1.01 ± 0.028 for the second.

AAATGAGTTA and AAATGCAAAG are within error of each other in switch fluorescence ratio: 0.99 ± 0.019 for the first, 0.991 ± 0.016 for the second.

First: AAATGCCAGG
Second: AAATGGAGTG
The switch fluorescence ratio of the first is higher: 1.08 ± 0.032 for the first, 0.987 ± 0.018 for the second.

AAATGGGAAA and AAATGGTGTC are within error of each other in switch fluorescence ratio: 1.06 ± 0.084 for the first, 1.01 ± 0.055 for the second.

First: AAATGTCTAA
Second: AAATGTTCCG
The switch fluorescence ratio of the first is lower: 1 ± 0.019 for the first, 1.03 ± 0.011 for the second.

First: AAATGTTCGT
Second: AAATGTTTAC
The switch fluorescence ratio of the first is lower: 1.011 ± 0.0058 for the first, 1.034 ± 0.0095 for the second.

AAATTAACAT and AAATTAGAGG are within error of each other in switch fluorescence ratio: 1.08 ± 0.13 for the first, 1 ± 0.026 for the second.

AAATTAGTGT and AAATTATTTT are within error of each other in switch fluorescence ratio: 0.968 ± 0.018 for the first, 0.999 ± 0.014 for the second.

AAATTCATAC and AAATTCGCTG are within error of each other in switch fluorescence ratio: 1.052 ± 0.0078 for the first, 1.01 ± 0.095 for the second.

AAATTCGGCG and AAATTCGGTT are within error of each other in switch fluorescence ratio: 1.01 ± 0.023 for the first, 0.99 ± 0.013 for the second.

AAATTGAGGG and AAATTGATCC are within error of each other in switch fluorescence ratio: 1.02 ± 0.061 for the first, 0.964 ± 0.016 for the second.

AAATTGGCTT and AAATTGGGTT are within error of each other in switch fluorescence ratio: 0.97 ± 0.044 for the first, 0.9768 ± 0.0091 for the second.

AAATTGTCAA and AAATTTAATC are within error of each other in switch fluorescence ratio: 1.01 ± 0.05 for the first, 1.02 ± 0.034 for the second.

Compared with AAATTTAGGA, AAATTTAGTT is higher in switch fluorescence ratio: 0.987 ± 0.021 for the first, 1.017 ± 0.006 for the second.

AAATTTCTTT and AAATTTGAAT are within error of each other in switch fluorescence ratio: 0.996 ± 0.016 for the first, 1.0094 ± 0.00021 for the second.

AAATTTGCGT and AAATTTGGGA are within error of each other in switch fluorescence ratio: 0.987 ± 0.02 for the first, 0.969 ± 0.027 for the second.

AAATTTGGGG and AAATTTTGAA are within error of each other in switch fluorescence ratio: 1 ± 0.038 for the first, 0.977 ± 0.021 for the second.
